The results in this text go back to the NTF2 design screens of Basanta et al. (2020).

A short description of the series: protease stability score; higher = more stable; yeast display proteolysis, trypsin and chymotrypsin.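 Further: relative to predicted unfolded state with 0 unfolded-like and 1 meaning tenfold more protease.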
Sequence “DKEEELMKTFSQLFEHWVETGDETEMLQNADPHAKSRFNGREIHGREDIVELLKRIIDQADHHEVHTDKVKVVGDKIHINSSFHIHIGEFTIRLHYELIVDKINGRWILKEVRLG” displayed a protease stability score of 0.927. Then “DKEEELSEIAHKIWIHELHTGDFESLEKNMDPHARIIQGDWHYHGRESVYHVFSRIVRMLGVKHIEIHSMEVINGQVHLDTRLHAEGHSRNTHVFFVKINGRWLSKEFEIK”, with 0.711; and “DKEEELVKKFLELWLHALRTGDEDFIRELFDPHARFVFDGRDFHGMEEFIRIMRHIRFHHIHLHHFDLQGDYVRLDTRVDGNVDGKRVTINTHMIMHKVNGRWVLESYTID”, with 0.839; and “DKEEEMVRHTATRFLHLLLTGDEEIITHLADPNMRIEVGDKESHGREHFADVIKEFSDHMRIKEWHIEVNEVVNGRILFDIHVDGIIGDKEDRIRFHLDIVVVNGKIKHVRIKIK”, with 1.15. Consider “DKEEHDMKRLADLMKRIFETGDWEEFWSLVDPNVRLHWIVNGREYEVIGRENASEMIEITLELLGVDHVEIHDIDVQGDKVHMKTRSIVNGREIDDNYHYIIVDGRLRRVEIKLK”, for which the protease stability score was found to be 1.81. Then “DKEEHDVHNMWQHLVEVLLTGNEEAIHENLDPDAKLEVGDKRYHGRELVSEVWSRLGINVIQLDDMRPIGNKVHVETTTHFNGKTLEMRIDAHKVNGRWLSESLIIR”, with 0.951; and “DKEEHLVKILIEILHREWETGDEDSISRNADPNTRVDIGDKHFHGREDAMEVLKRMLHQFPNIKFHIEDMRIIGNFVEIDVVINWNGKDVKSHLVFFKINGRWLTRHVEIR”, with 1.32; and “DKEEKEAREWSKRFLHLFLTGNEEEFKRLMDPHTQSMLLIDGKRDTHHGRDEATKLLSDWLNHMRLRELRVHDIKVQGDKATLDIRLNVEFNGVELERTSEIIIVVFDGRIKSVIFRIE”, with 1.55.

“DKEEKELEELVKLMVELSDTGDWKTFYQLADPHTKLHNLVDGKWDEQHGRENFVEVERKLRERFKGLRVERHDISVQGNKVHVDVILHVNGREMEIDEVFVIINGKLESVEIHVR” had a protease stability score of 1.19. The result for “DKEERYLEIAVNVIRHQLETGNEEDLLRNIDPDTRLFIDGRLFHGWETAHYLLRKVKNARIEIRSVHLIGDKIHMDTELIVNGVLRETEITARKVDGQWTWHHIRIE” reads 1.39. The result for “DKEEVEKIAREALEAAVKGDEDKLKTYLGPDVKYVLGDQEYQGQQVAELVMKLIKKDGARLQLETLKVEGNTVQAQYQFHVDGVTRKAHITMKVKGGRVDEWQVHIDDHAKEALKKG” reads 1.89; that for “DKEFEDVIRMAEHEMKLMETGDWKTHEHLADPNYRVDINGREHIGWDHFVRWLFHMRIHRIEIKEVRVQGEKATLRLKVDGEQGDKRFKTDIEFSLLIVDGRIKEIHIILH”, 1.36; that for “DKEHKESTKATHDVLRSWKTGDERFREELADPNARMEFNGREHVGREFMSELLRHLWEELGVDHMELKRVIIQGDKIHIDMDLTVGDKSIHLHVTVQKINGKWIIKSIRLELT”, -0.192.

For “DKEKEDAVRIVEHWIEALLTGDEHELKKYLDPEVRVEINGRDIHGMHLWSEHFKELRHEELHIHIRTVHVFDGKMSVEGELRIVGEVDGRRTDIIYHTEIEIEKVDGRWHIHHIHLR”, the protease stability score was -0.195. The result for “DKEKEDLKKLSDWWLHAIETGDFETIFRLLDPHVRIEINIGDKTHSIHGREEFYKWLHRVKNLQMTIHHSEPIGDKIRLHGFFVIDGVHHDTRHELYFIDGRLHEVHIHVI” reads 2.21; that for “DKELHIAYHLLKVFEHTLATGDEETSERLLDPDVRFWINGVDFHGWELFSTFMKHARFSFRDSRFHDNRLVNGQINLVGRVRLEIDVDGRRHHTETDVRVVILKVDGRWVIHSMEFK”, 1.46; that for “DKENHLMRELTRLIVDYINTGDWKEFRKLADPHVRIVIEVGDKRIERHGMEDWLKLVRDRLEEIRTHIEVHDVEAQGDKAHLDGRIRLIVGEFEIVIESRIKVVSIDGKLKEISVHMV”, 1.48.

For the sequence “DKEREHLKQLAEIIIHLWHTGDEEILMHLADPNTRLIIEWNGQESQYHGREEMYTIIRRIYEELGADHIHIEDHDVQGDKVIIHSRLEQGDKRVELHLIVVFVNGRLKEMHIHINDK”, the protease stability score was determined as 2.34. Take “DKETKDSEKMSRMYFEYLLTGDFEKLLEMADPDVRFEFNGKEYIGMHETIEILERIWKDLGIKHSELKKVELQGEKAIIDGRIKYGDKEVNVKIILLVWNGKMREQRIHYQ”: the protease stability score was determined as 1.1.

“DKFERDLEEALREVLEALETGDEDRLLNLFDPHARIDIDGRDLHGWEDLTRELREIRIRHIHLHDRRIQGEWIHFDTITDGEFNGQRTTVRTHILMLKFDGRWMIREVTFI” came in with a protease stability score of 1.51.

Turning to “DKHEEALEIAIRLLELVWKTGDFEDFVRLLDPHTRFHYGDKDFIGMELWLRLHEHLGITQIEIRSTHHHRIHAQGDKVILDIEIEGIIGDKETRHRIKLVVVKVDGRWKIKEVHIR”, the protease stability score is 1.09. In turn, “DKIKHLEDEIEKIFFETIETGDEHLFNQLVDPNVRVRIGDKHSVGREHVERVEREHREHMGVDHVEIRIHDSRTFNGVIHIEGKLHYHVNGRRHEHRIHIFLVVWDGVVRHLEIEIR” had a protease stability score of 0.305.

“DKKEKDAKEAFDWLVKHVRTGDETMLHELMDPDVKLEIGDKHIVGRENVVHVFSRLIERADHMEFILTDMKVYDGRVESDTILVLHIDGVEIRRKTKITVIKINGRWLLHTVHIE” gave a protease stability score of 1.31. The result for “DKKQVHDVARTLVQYYVSGNSERVKQLGKEDVELHAGDRTYHGVDQMAKVVEQFKKYGVELEVKDVKVDGNRVTARVQFHKAGTTWEFKVDVQADGGKVDQVRVNVTEEAIKHIQHG” reads 0.715.

Sequence “DKLDKLLREMLELFNHLLKTGDWDTITKLVDPNVRIDINGQELHGMELILEWWLRLGIRNEHERERDRDSQGEFMHVEGHRHIRINGQSTRFDTILHIEIIDGRIKDIKVNLI” came in with a protease stability score of 1.12. Then “DKLEKWAEHMVHLIFRAFETGDWRMLSKYFDPDTRHHVGNFHLVGMEDFIKLARELSERLGMEIDRVHVRHFDTQGDKLTVEIIVHSRVGDKEETRETIILVSKYNGRWHLSSIEIK”, with 1.39; and “DKLHHDARWMMERLYETLETGDFHSFLRLADPEVLLIINGQFLHGREEVERFYDEEREKFKGLTIKHLHIHRVEMQGDKVRVDSRIHHIINGVNVHNNVKLEFVAFDGRMHRLRIEEE”, with 1.24. Then “DKQHEDIRRFMEEFLNAVTTGDEDVLSRLHDPHARFRLHQGEKHDEKHGRESWLKWMSEIRIHHIEIEHIDVQGDYTLMIVHSDGTIDGVRMEWESRIILYVYNGKLKEVEVRIH”, with 0.691; and “DKRDEKMERFLRLMIEFYTTGNEDEFRKLADPDVRTIVGDKHAHGWEESEKVFRILIDHMRIRRIHIEHITVQGNWAHSITRLDGEVNGVRVHVRTEVVIIVYNGRVETIDLRWE”, with 1.28; and “DKREEELHWAVELLIDIFRTGDERLLIELIDPHARSEVGDKTLHGRQHAEVEHRDWGLDRVETHIHDYKVQGNKLHLDMSTVVNGKDIKISFIAEKYNGRWHLKRIIIR”, with 1.27. As to “DKREEEVHELIRELVESIITGDFRHFFKLLDPHARSEVGDKELHGREQISDWLLKHIRRVKNITFKEVHFHELRVIGDKVEFHFDIRGVINGQDTTLEVEMKARKIDGRWHVEEIRFI”, the protease stability score was found to be 1.28. In the case of “DKREEIAREIWKMFDDAVFTGNEETLERMADPNVRFIIGDKHLIGMRDEIHWLREIRVHIELSRIHDIHLQGDKIHIDSHNDIEIIINGQERRHETKYMIDIRKVNGRWIIERVEIR”, the protease stability score worked out at 0.818. Then “DKREHDMERWFKLWWHTLMTGDEDLYHELLDPNARIVQGEKHHHGRENLVEYFTHLVEEMRIRHFHLHDMRFQGEKNDIDGHIDITINGQRHDTRFTIHLLIVNGKLRHVELRIL”, with 0.506.

On to “DKRIEWYRHVMEVLFNILLTGNFEILEELLDPHVRIDINGKEYHGREQMIEAWETHLHELRIHDMRIKTIDHQGDKHILTTRVDIDIDGQNVEDRTHIELHIIDGRLKSIILRVS”, for which the protease stability score is 1.06. In turn, “DKTEEDAKRWAEHFSHNMETGNEEKIIDLADPNTRLEVNGRHVHGREEFSRFWKELSDRVDHIRIQITRISIIGDKIRIDSRIFLHINGKEMIVESVLISEKVNGRWMMREIDIR” had a protease stability score of 1.84. The result for “DKTTEEAERDAREVTRLHRTGDEEYLEKYFDPHVKLEFNGRDVHGMELASEILKKVRRDLGVDHIEVKHVELDVQGEWIHVHLNLRVFFDGRETRYEYNVHVRKIDGKWIIKHVIVRVS” reads 1.34. “DKVEDDLREFARLFVEYMETGDEDKVSKLMDPSMRIEIHINGKDIKYHGREELNRWRSEEMKRVDHEKWHHKHIRVIGDKVDIDFRRVEHVGDKHLVFQVHIELFVINGKLHTVIIRIE” yielded a protease stability score of 1.53.

Consider “DLDNILMKLFLKEVEEVERTGDERLIHELADPNVRVEQGDKKFHGRHEAVRIYMELGIKHSRLTDVKFFEGHVLIHVRIHVDGRDIDLTIFMHKIDGRWIIKSMKQD”, for which the protease stability score came to 1.16. The result for “DLDQELREKTIRIELKAWRTGDEDKIKELLDPNTRFIINGRHLIGREAIHILLEQIDHFKDLQPRHVDVINGVVRFDGHMEGTFNGVDQSTKVHIIAWKYNGRWFIESIIII” reads 1.59. For “DLEHEITRRVLWELTESSKTGDFDRRLELLDPHARVNIDGKDFHGREEVEYLLREMEKFWGHDRVYLDVKEIEIQGDKIDVDSELTINGKKRKARLIVVKVNGRWVIHSIEVE”, the protease stability score amounted to 1.04. Then “DLYKHWTDVLLHLFLHVSRTGDEEEVVRLMDPNTLIIINGQEIHGREEIKRTFREMRVDDERLKDMDKIGNKVRVDGEVRITVDGQERTSRAHMVVLKVDGRWTIHSLRIE”, with 1.77; and “DNDQEKIKELARLAEQVMQTGNEKLLRELFDPHARIDIDGKTLHGWKDLLEFTRHELERIDHVVFTVRRVDLQGDKVRVETEVNIDINGKKMTLETTLLIDKFDGRWFLRTIEWE”, with 1.8; and “DNEDKLAEQMLKEILELWHTGDEEKWSNLADPNTRIHINGQESHGRDNFHKFWEDFHSTLGIDVLKFSLKDFRIQGDKSRVDVETKVKQGDKSEHYRTFLIFIIVDGRVKTIEIRIK”, with 0.703.

In the case of “DNEEKDNKTATKLLLDWLRTGDEESMSRNADPNTRLEIGDKEFHGREEVLRHLHELKRHFGIERFEVDIERVEIYGDKVVIHSRMNVNGQRREVIFIDRKIDGRWIFKSIELR”, the protease stability score was 1.13.

Sequence “DNEERYMIKLLHMLWLAFLTGDEELWYKLADPHVRWTFENREIHGREQFVKEQRRIKNMRIEMELKDVRVQGDKIHTDGHLEINQGDKHIHTDVRLHLVVINGRLHEFHVTLV” yielded a protease stability score of 1.54. Then “DNESHLAEEWFRWFIDWMQTGNEEETRKFADPNVRFDINGVEIHGMKLYEDHIKHLGFRQDIRIRHIDTYDGQVDVDTEVRINVNGVEIRHKTRTNLIMIDGKLKTLTVKLE”, with 1.01; and “DNKEKLMNKAFEWILELIITGDEDTLHELADPNARNHYGEFHHVGREETTRFLVEFNRRLGVDHVRFERMRVIDGKVHLHIEINVDGRRFESDLIFFKVDGRWKLNFVHFRHV”, with 1.27.
